The labels stand for the following.
B1: PulLCTD (C-terminal domain of PulL, residues 312-398) (domain or fragment, Klebsiella oxytoca)
chain: SNAGARPALISRLGALQQIIDDTPGIRLRTLSFDAARNALQLEISAVSSQALEQFSQRARARFRVQTGEMKPRADGIEGRLTLEGNDA
B2: PulMCTD (C-terminal domain of PulM, residues 79-161) (domain or fragment, Klebsiella oxytoca)
chain: SPEEPSTVIMREAARHGLTIVRLQPQGSRLSLTVQPADFQALMAWLDALGQAGMTTATLAVTAVAQQPGWVTVNTLVLERSDEK

The series “AUC + other: NMR” deals with the molecule itself. The series can be described thus: AUC + other: NMR.
Series [1] has as its target B2. The series can be described thus: NMR titration.
Series [2] deals with B1. Description: native MS.
Series [3] concerns the molecule itself.

The record followed here is publication doi:10.1101/2022.07.16.500195 (bioRxiv, 2022).

Where two headings read alike, the source gives them in different places.

Consider B1, for which the “stoichiometry N” value in the series “AUC + other: NMR” was 2; in series [1], 1 PulLCTD per PulMCTD.
As to B2, in series [2], the binding result is “binds”. Further, the “stoichiometry N” value in series [3] was found to be 2.

The stoichiometry N is the number of molecules, sites or subunits per partner or assembly.
